# Measurements: IntAct's records for PubMed 29039417
# B1: BBSome complex member BBS4 (Homo sapiens), Q96RK4 (parent)
# chain: MAEERVATRTQFPVSTESQKPRQKKAPEFPILEKQNWLIHLHYIRKDYEACKAVIKEQLQETQGLCEYAIYVQALIFRLEGNIQESLELFQTCAVLSPQSADNLKQVARSLFLLGKHKAAIEVYNEAAKLNQKDWEISHNLGVCYIYLKQFNKAQDQLHNALNLNRHDLTYIMLGKIHLLEGDLDKAIEVYKKAVEFSPENTELLTTLGLLYLQLGIYQKAFEHLGNALTYDPTNYKAILAAGSMMQTHGDFDVALTKYRVVACAVPESPPLWNNIGMCFFGKKKYVAAISCLKRANYLAPFDWKILYNLGLVHLTMQQYASAFHFLSAAINFQPKMGELYMLLAVALTNLEDIENAKRAYAEAVHLDKCNPLVNLNYAVLLYNQGEKKNALAQYQEMEKKVSLLKDNSSLEFDSEMVEMAQKLGAALQVGEALVWTKPVKDPKSKHQTTSTSKPASFQQPLGSNQALGQAMSSAAAYRTLPSGAGGTSQFTKPPSLPLEPEPAVESSPTETSEQIREK
# partner: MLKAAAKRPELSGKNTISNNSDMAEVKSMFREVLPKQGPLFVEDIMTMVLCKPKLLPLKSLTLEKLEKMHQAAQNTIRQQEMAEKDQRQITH
# B2: BBSome complex member BBS2 (Homo sapiens), Q9BXC9 (parent)
# chain: MLLPVFTLKLRHKISPRMVAIGRYDGTHPCLAAATQTGKVFIHNPHTRNQHVSASRVFQSPLESDVSLLSINQAVSCLTAGVLNPELGYDALLVGTQTNLLAYDVYNNSDLFYREVADGANAIVLGTLGDISSPLAIIGGNCALQGFNHEGSDLFWTVTGDNVNSLALCDFDGDGKKELLVGSEDFDIRVFKEDEIVAEMTETEIVTSLCPMYGSRFGYALSNGTVGVYDKTSRYWRIKSKNHAMSIHAFDLNSDGVNELITGWSNGKVDARSDRTGEVIFKDNFSSAIAGVVEGDYRMDGHIQLICCSVDGEIRGYLPGTAEMRGNLMDTSAEQDLIRELSQKKQNLLLELRNYEENAKAELASPLNEADGHRGIIPANTRLHTTLSVSLGNETQTAHTELRISTSNDTIIRAVLIFAEGIFTGESHVVHPSIHNLSSSICIPIVPPKDVPVDLHLKAFVGYRSSTQFHVFESTRQLPRFSMYALTSLDPASEPISYVNFTIAERAQRVVVWLGQNFLLPEDTHIQNAPFQVCFTSLRNGGHLHIKIKLSGEITINTDDIDLAGDIIQSMASFFAIEDLQVEADFPVYFEELRKVLVKVDEYHSVHQKLSADMADHSNLIRSLLVGAEDARLMRDMKTMKSRYMELYDLNRDLLNGYKIRCNNHTELLGNLKAVNQAIQRAGRLRVGKPKNQVITACRDAIRSNNINTLFKIMRVGTASS
# partner: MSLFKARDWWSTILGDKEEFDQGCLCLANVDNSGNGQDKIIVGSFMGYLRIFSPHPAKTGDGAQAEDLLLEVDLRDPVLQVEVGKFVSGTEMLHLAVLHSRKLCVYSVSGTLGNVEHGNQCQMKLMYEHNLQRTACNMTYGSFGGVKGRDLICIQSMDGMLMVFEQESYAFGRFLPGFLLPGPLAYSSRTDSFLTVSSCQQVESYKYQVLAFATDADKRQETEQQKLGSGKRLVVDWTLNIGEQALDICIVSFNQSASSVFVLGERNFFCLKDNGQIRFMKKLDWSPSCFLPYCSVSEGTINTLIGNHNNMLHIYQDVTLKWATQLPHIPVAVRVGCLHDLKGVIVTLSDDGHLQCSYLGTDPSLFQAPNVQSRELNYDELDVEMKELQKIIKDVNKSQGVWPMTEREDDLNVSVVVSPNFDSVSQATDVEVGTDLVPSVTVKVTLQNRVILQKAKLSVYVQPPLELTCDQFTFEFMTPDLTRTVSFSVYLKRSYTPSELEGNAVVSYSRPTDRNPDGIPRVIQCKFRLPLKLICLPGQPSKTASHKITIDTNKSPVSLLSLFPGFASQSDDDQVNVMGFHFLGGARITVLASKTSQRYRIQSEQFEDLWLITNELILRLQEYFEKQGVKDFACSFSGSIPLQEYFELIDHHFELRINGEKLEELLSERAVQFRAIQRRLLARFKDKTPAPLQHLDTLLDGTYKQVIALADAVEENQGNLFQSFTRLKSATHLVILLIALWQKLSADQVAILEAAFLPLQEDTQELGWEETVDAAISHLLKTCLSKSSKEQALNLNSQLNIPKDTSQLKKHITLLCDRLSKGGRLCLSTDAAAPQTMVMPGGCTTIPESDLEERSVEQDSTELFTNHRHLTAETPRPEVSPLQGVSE
# Variants of: B1
# Conditions: with bbip1_human BBIP1, A8MTZ0
row,effect of a mutation on the interaction,Variant
1,with no effect,P271K
2,with no effect,P271E
3,with no effect,P271A
4,with no effect,I290A
5,with no effect,I290K
6,with no effect,I290E
7,with no effect,N274K
8,with no effect,N274E
9,with no effect,N274A
10,with no effect,G277E
11,with no effect,G277K
12,with no effect,G277A
13,with no effect,P270A
14,with no effect,P270E
15,with no effect,P270K
16,with no effect,C292A
17,with no effect,C292E
18,with no effect,M278A
19,disrupting interaction strength,M278L
20,disrupting interaction strength,M278T
21,with no effect,M278K
22,with no effect,M278E
23,with no effect,F280E
24,with no effect,F280K

row,effect of a mutation on the interaction,Variant
1,with no effect,F280A
2,with no effect,K284A
3,with no effect,K284E
4,with no effect,W273A
5,with no effect,W273K
6,with no effect,W273E
7,with no effect,S269A
8,with no effect,S269E
9,with no effect,S269K
10,with no effect,K283E
11,with no effect,K283A
12,with no effect,Y286A
13,with no effect,Y286K
14,with no effect,Y286E
15,with no effect,E268K
16,with no effect,E268A
17,with no effect,G282A
18,with no effect,G282E
19,with no effect,G282K
20,with no effect,K285E
21,with no effect,K285A
22,with no effect,C279E
23,with no effect,C279K
24,with no effect,C279A

row,effect of a mutation on the interaction,Variant
1,with no effect,S291E
2,with no effect,S291A
3,with no effect,S291K
4,with no effect,I276K
5,with no effect,I276E
6,with no effect,I276A
7,with no effect,V287K
8,with no effect,V287A
9,with no effect,V287E
10,with no effect,N275A
11,with no effect,N275E
12,with no effect,N275K
13,with no effect,L272A
14,with no effect,L272E
15,with no effect,L272K
16,with no effect,F281E
17,with no effect,F281A
18,with no effect,F281K
19,disrupting interaction strength,F281S
20,with no effect,A289K
21,disrupting interaction strength,A289V
22,with no effect,A289E
23,with no effect,A288K
24,with no effect,A288E

# Variants of: B1
# Conditions: with bbip1_human BBIP1, A8MTZ0
# Remark: another data set of the same source
row,effect of a mutation on the interaction,Variant
1,disrupting interaction strength,N377Y
2,disrupting interaction strength,L327P

# Variants of: B2
# Conditions: with pthb1_human BBS9, Q3SYG4
row,effect of a mutation on the interaction,Variant
1,with no effect,S721K
2,with no effect,S721A
3,with no effect,S721E
4,with no effect,T718E
5,with no effect,T718A
6,with no effect,T718K
7,with no effect,S720A
8,with no effect,S720K
9,with no effect,S720E
10,with no effect,G717E
11,with no effect,G717K
12,with no effect,G717A
13,with no effect,V716E
14,with no effect,V716A
15,with no effect,V716K
16,with no effect,A719E
17,with no effect,A719K
